Tests used:
[1] = target: T1, recombinant N-terminal fragment (residues 1-330) of human cardiac-type Myosin-binding protein C3 with … (human, UniProt Q14896 1-330); assay: SPR (Biacore) at 37°C, antibody captured via anti-rabbit Fc, MYBPC3 0.4-90 nM, Langmuir 1:1 fit over 2 series
T1 construct: expressed in HEK293-F cells and purified as a monomer; also called MYBPC3; N-terminal MyBPC-Fragment (1-330)

[2] = target: T1, recombinant N-terminal fragment …; assay: Elecsys ECLIA sandwich; row antibody biotinylated (capture), second antibody ruthenylated 25H1 (detection); 0.9 pg/mL MYBPC3
[3] = target: T1, recombinant N-terminal fragment …; assay: sandwich ELISA, streptavidin MTP; row antibody biotinylated (capture), second antibody DIG-labelled 4.1.1 (detection); 2.7 pg/mL MYBPC3
[4] = target: T1, recombinant N-terminal fragment …; assay: Elecsys ECLIA sandwich; row antibody biotinylated (capture), second antibody ruthenylated 13F11 (detection); 2.7 pg/mL MYBPC3
[5] = target: T1, recombinant N-terminal fragment …; assay: sandwich ELISA, streptavidin MTP; row antibody biotinylated (capture), second antibody DIG-labelled 5B8 (detection); 2.7 pg/mL MYBPC3
[6] = target: T1, recombinant N-terminal fragment …; assay: Elecsys ECLIA sandwich; row antibody biotinylated (capture), second antibody ruthenylated 4.1.1 (detection); 2.7 pg/mL MYBPC3
[7] = target: T1, recombinant N-terminal fragment …; assay: Elecsys ECLIA sandwich; row antibody biotinylated (capture), second antibody ruthenylated 4.1.1 (detection); 0.9 pg/mL MYBPC3
[8] = target: T1, recombinant N-terminal fragment …; assay: sandwich ELISA, streptavidin MTP; row antibody biotinylated (capture), second antibody DIG-labelled 7B5 (detection); 2.7 pg/mL MYBPC3
[9] = target: T1, recombinant N-terminal fragment …; assay: Elecsys ECLIA sandwich; row antibody biotinylated (capture), second antibody ruthenylated 25H1 (detection); 2.7 pg/mL MYBPC3
[10] = target: T1, recombinant N-terminal fragment …; assay: Elecsys ECLIA sandwich; row antibody biotinylated (capture), second antibody ruthenylated 13F11 (detection); 0.9 pg/mL MYBPC3
[11] = target: T1, recombinant N-terminal fragment …; assay: sandwich ELISA, streptavidin MTP; row antibody biotinylated (capture), second antibody DIG-labelled 4.7.10 (detection); 2.7 pg/mL MYBPC3
[12] = target: T1, recombinant N-terminal fragment …; assay: Elecsys ECLIA sandwich; row antibody biotinylated (capture), second antibody ruthenylated 5B8 (detection); 2.7 pg/mL MYBPC3
[13] = target: T1, recombinant N-terminal fragment …; assay: SPR (Biacore) at 37°C, antibody captured via anti-mouse Fc, MYBPC3 0.4-90 nM, Langmuir 1:1 fit over 2 series
[14] = target: T1, recombinant N-terminal fragment …; assay: Elecsys ECLIA sandwich; row antibody biotinylated (capture), second antibody ruthenylated 7B5 (detection); 0.9 pg/mL MYBPC3
[15] = target: T1, recombinant N-terminal fragment …; assay: Elecsys ECLIA sandwich; row antibody biotinylated (capture), second antibody ruthenylated 7B5 (detection); 2.7 pg/mL MYBPC3
[16] = target: T1, recombinant N-terminal fragment …; assay: Elecsys ECLIA sandwich; row antibody biotinylated (capture), second antibody ruthenylated 5B8 (detection); 0.9 pg/mL MYBPC3
[17] = target: T1, recombinant N-terminal fragment …; assay: Elecsys ECLIA sandwich; row antibody biotinylated (capture), second antibody ruthenylated 11F2 (detection); 2.7 pg/mL MYBPC3
[18] = target: T1, recombinant N-terminal fragment …; assay: Elecsys ECLIA sandwich; row antibody biotinylated (capture), second antibody ruthenylated 8H1 (detection); 2.7 pg/mL MYBPC3
[19] = target: T1, recombinant N-terminal fragment …; assay: sandwich ELISA, streptavidin MTP; row antibody biotinylated (capture), second antibody DIG-labelled 4.7.10 (detection); 1 ng/mL MYBPC3
[20] = target: T1, recombinant N-terminal fragment …; assay: Elecsys ECLIA sandwich; row antibody biotinylated (capture), second antibody ruthenylated 7D5 (detection); 2.7 pg/mL MYBPC3
[21] = target: T1, recombinant N-terminal fragment …; assay: Elecsys ECLIA sandwich; row antibody biotinylated (capture), second antibody ruthenylated 11F2 (detection); 0.9 pg/mL MYBPC3
[22] = target: T1, recombinant N-terminal fragment …; assay: Elecsys ECLIA sandwich; row antibody biotinylated (capture), second antibody ruthenylated 8H1 (detection); 0.9 pg/mL MYBPC3
[23] = target: T1, recombinant N-terminal fragment …; assay: Elecsys ECLIA sandwich; row antibody biotinylated (capture), second antibody ruthenylated 7D5 (detection); 0.9 pg/mL MYBPC3
[24] = target: T1, recombinant N-terminal fragment …; assay: sandwich ELISA, streptavidin MTP; row antibody biotinylated (capture), second antibody DIG-labelled 4.6.6 (detection); 1 ng/mL MYBPC3
[25] = target: T1, recombinant N-terminal fragment …; assay: sandwich ELISA, streptavidin MTP; row antibody biotinylated (capture), second antibody DIG-labelled 4.1.1 (detection); 1 ng/mL MYBPC3

T1 sequence (Q14896 other isoform, or with tags, fused parts or gaps limits assumed): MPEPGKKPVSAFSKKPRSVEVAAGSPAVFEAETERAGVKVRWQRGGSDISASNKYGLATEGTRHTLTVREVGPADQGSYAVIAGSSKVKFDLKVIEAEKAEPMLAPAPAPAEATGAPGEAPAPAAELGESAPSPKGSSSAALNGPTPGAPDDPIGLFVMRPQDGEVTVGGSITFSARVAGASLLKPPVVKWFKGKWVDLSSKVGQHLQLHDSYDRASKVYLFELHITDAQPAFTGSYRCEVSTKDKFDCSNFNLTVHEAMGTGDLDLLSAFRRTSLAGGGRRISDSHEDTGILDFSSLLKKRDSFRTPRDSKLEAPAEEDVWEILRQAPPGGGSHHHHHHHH

B1: monoclonal antibody 7B5 (antibody, V domains shown)
VH: QEQLEESGGGLVKPGGTLTLTCKVSGFDFSSGYDMCWVRQAPGKGLESIACIGSSSASTWYANWVNGRFTVSRSTSLNTVDLKMTSLTVADTATYFCARESSTEYYYNLWGPGTLVTVSS
VL: DIVMTQTPASVEAAVGGTVTIKCQASQSIGNALAWYQQKPGQPPKLLIYSTSYLPSGVPSRFKGGGSGAEYTLTISDLECADAATYYCQSYYVSTSSSDRSSFGGGTEVVVK
notes: Rabbit B-cell derived monoclonal IgG, expressed recombinantly in HEK293 cells; Biotinylated, DIG-labelled or ruthenylated in the sandwich assays; also called mAB 7B5; MAK<MYPBC3<rK-7B5-IgG(SPA)
B1 gave a Kd [1] of 0.19 nM, a koff [1] of 0.00051 s⁻¹ and a kon [1] of 2.7e+06 M⁻¹ s⁻¹. For the same binder, the “ratio (0.9 pg/mL) / blank” value [2] was 1.01, the “Ratio (Δ OD 2.7 pg/mL/blank)” value [3] was 3.07 and the “ratio (2.7 pg/mL) /blank” value [4] was 1.02. For the same binder, the “Ratio (Δ OD 2.7 pg/mL/blank)” value [5] was 1.01, the “ratio (2.7 pg/mL) /blank” value [6] was 1.4 and the “ratio (0.9 pg/mL) / blank” value [7] was 1.18. For the same binder, the “Ratio (Δ OD 2.7 pg/mL/blank)” value [8] was 0.98, the “ratio (2.7 pg/mL) /blank” value [9] was 1.03 and the “ratio (0.9 pg/mL) / blank” value [10] was 1.01. The “Ratio (Δ OD 2.7 pg/mL/blank)” value [11] was 0.98.

B2: monoclonal antibody 4.1.1 (antibody, V domains shown)
VH: QVQLKESGPGLVAPSQSLSITCTVSGFSLTGYGVNWVRQPPGKGLEWLGMIWGDGSTDYNSVYKSRLSISKDNSKSQVFLKMNSLQTDDTARYYCARRDTGGASMDYWGQGTSVTVSS
VL: DILMTQSPAILSVSPGERVSFSCRASQNIGTNMHWYQQRTNGSPRLLIRFASESFSGIPSRFSGTGSGTDFTLRINSVESEDIADYYCQQSYNWPFTFGAGTKLELK
notes: Mouse hybridoma monoclonal IgG; Biotinylated, DIG-labelled or ruthenylated in the sandwich assays; also called M-4.1.1; M.4.1.1
B2 was tested, and the “ratio (2.7 pg/mL) /blank” value [12] was 1, the “ratio (0.9 pg/mL) / blank” value [2] was 1.01 and the Kd [13] was 0.056 nM. For the same binder, the koff [13] was 0.00012 s⁻¹, the kon [13] was 2.1e+06 M⁻¹ s⁻¹ and the “ratio (0.9 pg/mL) / blank” value [14] was 1.11. For the same binder, the “ratio (2.7 pg/mL) /blank” value [15] was 1.32, the “ratio (0.9 pg/mL) / blank” value [16] was 0.99 and the “ratio (2.7 pg/mL) /blank” value [4] was 1.32. The “Ratio (Δ OD 2.7 pg/mL/blank)” value [5] was 0.99, the “ratio (2.7 pg/mL) /blank” value [17] was 1 and the “ratio (2.7 pg/mL) /blank” value [18] was 1.01. The “Ratio (Δ OD 2.7 pg/mL/blank)” value [8] was 1.43, the “Ratio (Δ OD 1 ng/mL MYBPC3) / blank” value [19] was 23.6 and the “ratio (2.7 pg/mL) /blank” value [20] was 1.09. For the same binder, the “ratio (0.9 pg/mL) / blank” value [21] was 1.01, the “ratio (0.9 pg/mL) / blank” value [22] was 1.02 and the “ratio (2.7 pg/mL) /blank” value [9] was 1. The “ratio (0.9 pg/mL) / blank” value [23] was 1.02, the “Ratio (Δ OD 1 ng/mL MYBPC3) / blank” value [24] was 3.39 and the “ratio (0.9 pg/mL) / blank” value [10] was 1.14. The “Ratio (Δ OD 1 ng/mL MYBPC3) / blank” value [25] was 1.09.

From patent publication EP4685489A2 (Roche Diagnostics GmbH, dated 2026)
